Read-outs that look alike come from different tables or passages of the source. Bridges are numbered along the chain shown (N, C = ends). Where no end group is shown, it is not given here. [ ]: non-standard residue; d: D form. Bip = N[C@@H](Cc1ccc(-c2ccccc2)cc1)C(=O)O; 2Nal = N[C@@H](Cc1ccc2ccccc2c1)C(=O)O; d2Nal = N[C@H](Cc1ccc2ccccc2c1)C(=O)O; hArg = N=C(N)NCCCC[C@H](N)C(=O)O; 3Pal = N[C@@H](Cc1cccnc1)C(=O)O; Pen = CC(C)(S)[C@H](N)C(=O)O; Nle = CCCC[C@H](N)C(=O)O; Bal = not defined here; GABA = NCCCC(=O)O; βAla = NCCC(=O)O
B1: Ac-D-Arg-c(Cys-His-D-Phe-Arg-Trp-Gaba-Pen)-NH2 (peptide)
chain: Ac-[dR]CH[dF]RW[GABA][Pen]-NH2
modifications: disulfide 2-8
SMILES: CC(=O)N[C@H](CCCNC(=N)N)C(=O)N[C@H]1CSSC(C)(C)[C@@H](C(N)=O)NC(=O)CCCNC(=O)[C@H](Cc2c[nH]c3ccccc23)NC(=O)[C@H](CCCNC(=N)N)NC(=O)[C@@H](Cc2ccccc2)NC(=O)[C@H](Cc2c[nH]cn2)NC1=O
B2: Ac-Nle-c(Asp-D-Ala-His-D-Phe-Arg-Trp-Lys)-NH2 (peptide)
chain: Ac-[Nle]D[dA]H[dF]RWK-NH2
modifications: lactam 2-8
SMILES: CCCC[C@H](NC(C)=O)C(=O)N[C@H]1CC(=O)NCCCC[C@@H](C(N)=O)NC(=O)[C@H](Cc2c[nH]c3ccccc23)NC(=O)[C@H](CCCNC(=N)N)NC(=O)[C@@H](Cc2ccccc2)NC(=O)[C@H](Cc2c[nH]cn2)NC(=O)[C@@H](C)NC1=O
B3: Ac-Nle-c(Cys-D-Ala-His-D-Phe-Arg-Trp-Gly-Cys)-NH2 (peptide)
chain: Ac-[Nle]C[dA]H[dF]RWGC-NH2
modifications: disulfide 2-9
SMILES: CCCC[C@H](NC(C)=O)C(=O)N[C@H]1CSSC[C@@H](C(N)=O)NC(=O)CNC(=O)[C@H](Cc2c[nH]c3ccccc23)NC(=O)[C@H](CCCNC(=N)N)NC(=O)[C@@H](Cc2ccccc2)NC(=O)[C@H](Cc2c[nH]cn2)NC(=O)[C@@H](C)NC1=O
B4: Ac-Arg-c(Cys-His-D-Phe-Arg-Trp-Gaba-Pen)-NH2 (peptide)
chain: Ac-RCH[dF]RW[GABA][Pen]-NH2
modifications: disulfide 2-8
SMILES: CC(=O)N[C@@H](CCCNC(=N)N)C(=O)N[C@H]1CSSC(C)(C)[C@@H](C(N)=O)NC(=O)CCCNC(=O)[C@H](Cc2c[nH]c3ccccc23)NC(=O)[C@H](CCCNC(=N)N)NC(=O)[C@@H](Cc2ccccc2)NC(=O)[C@H](Cc2c[nH]cn2)NC1=O

How the values were obtained:
Experiment in all cases: competition
[1] = target: T1, hMC3-R (human, UniProt P41968)
T1 sequence (P41968 whole entry): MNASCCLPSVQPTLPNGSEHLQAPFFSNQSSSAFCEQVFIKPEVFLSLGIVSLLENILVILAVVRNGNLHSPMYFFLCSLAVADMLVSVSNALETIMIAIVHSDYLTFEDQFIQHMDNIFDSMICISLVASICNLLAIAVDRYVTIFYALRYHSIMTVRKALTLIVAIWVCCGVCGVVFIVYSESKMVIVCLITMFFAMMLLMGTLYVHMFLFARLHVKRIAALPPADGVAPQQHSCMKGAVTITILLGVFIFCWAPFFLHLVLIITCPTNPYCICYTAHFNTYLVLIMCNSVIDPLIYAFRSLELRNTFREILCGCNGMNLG

[2] = target: T2, hMC5-R (human, UniProt P33032)
T2 sequence (P33032 whole entry): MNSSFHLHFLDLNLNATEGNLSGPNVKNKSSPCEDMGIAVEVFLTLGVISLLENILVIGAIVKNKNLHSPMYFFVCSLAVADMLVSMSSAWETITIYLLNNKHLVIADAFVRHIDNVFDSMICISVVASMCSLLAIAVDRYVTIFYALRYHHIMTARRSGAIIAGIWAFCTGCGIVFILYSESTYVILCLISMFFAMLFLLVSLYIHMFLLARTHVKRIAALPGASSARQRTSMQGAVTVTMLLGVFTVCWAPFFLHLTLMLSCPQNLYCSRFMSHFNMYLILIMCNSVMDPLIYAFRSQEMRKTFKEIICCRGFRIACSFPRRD

[3] = target: T3, hMC1-R (human, UniProt Q01726)
T3 sequence (Q01726 whole entry): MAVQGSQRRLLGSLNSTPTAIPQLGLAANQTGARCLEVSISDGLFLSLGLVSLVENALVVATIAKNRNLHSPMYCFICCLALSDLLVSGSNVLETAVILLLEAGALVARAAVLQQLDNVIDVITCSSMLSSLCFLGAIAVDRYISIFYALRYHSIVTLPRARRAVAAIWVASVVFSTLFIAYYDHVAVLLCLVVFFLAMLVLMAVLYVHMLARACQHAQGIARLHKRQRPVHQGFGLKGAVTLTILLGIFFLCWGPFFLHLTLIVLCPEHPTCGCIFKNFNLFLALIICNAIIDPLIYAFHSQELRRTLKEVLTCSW

[4] = target: T3, hMC1-R; remark: listed apart in the source
[5] = target: T2, hMC5-R; remark: listed apart in the source
[6] = target: T1, hMC3-R; remark: listed apart in the source
[7] = target: T4, hMC4-R (human, UniProt P32245)
T4 sequence (P32245 whole entry): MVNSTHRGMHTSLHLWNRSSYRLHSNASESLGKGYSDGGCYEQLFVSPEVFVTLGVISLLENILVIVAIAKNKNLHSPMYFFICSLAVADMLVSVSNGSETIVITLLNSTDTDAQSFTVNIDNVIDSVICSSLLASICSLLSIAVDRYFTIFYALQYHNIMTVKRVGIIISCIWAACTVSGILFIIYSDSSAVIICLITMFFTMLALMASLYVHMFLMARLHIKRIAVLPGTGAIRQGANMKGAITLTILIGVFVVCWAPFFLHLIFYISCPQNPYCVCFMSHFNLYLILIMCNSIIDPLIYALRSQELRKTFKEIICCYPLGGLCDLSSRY

[8] = target: T4, hMC4-R; remark: listed apart in the source

Binder	Ki [1] [nM]	Ki [2] [nM]	Ki [3] [nM]	Ki [4] [nM]	Ki [5] [nM]	Ki [6] [nM]	Ki [7] [nM]	Ki [8] [nM]
Ac-[Nle]C[3Pal][dF]RW[GABA]C-NH2 (disulfide 2-8) [Ac-Nle-c(Cys-3-Pal-D-Phe-Arg-Trp-Gaba-Cys)-NH2]	151	92.6	21.1	–	–	–	–	–
Ac-[Nle]DH[d2Nal]RWAK-NH2 (lactam 2-8) [Ac-Nle-c(Asp-His-D-2-Nal-Arg-Trp-Ala-Lys)-NH2]	–	–	1.17	–	–	–	–	–
B1	–	–	–	3.93	538	172	11	–
[dF]CH[dF]R[Bip][βAla][dC]T-NH2 (disulfide 2-8 (inferred)) [D-Phe-c(Cys-His-D-Phe-Arg-Bip-β-Ala-D-Cys)-Thr-NH2]	3370	1130	5.8	–	–	–	–	583
B2	98.9	4.19	0.659	–	–	–	–	2.55
Ac-[Nle]D[dA]H[dF]R[Bal]AK-NH2 (lactam 2-9; reading uncertain) [Ac-Nle-c(Asp-D-Ala-His-D-Phe-Arg-Bal-Ala-Lys)-NH2]	–	11.1	4.89	–	–	–	–	21.3
B3	149	339	–	–	–	–	–	3.01
CEHXRXAC (cyclic, D-residues) [Ac-c(Cys-Glu-His-D-Phe-Arg-2-Nal-Ala-Cys)-NH2]	–	1460	262	–	–	–	–	–
Ac-C[dA]H[dF]R[2Nal]AC-NH2 (disulfide 1-8 (inferred)) [Ac-c(Cys-D-Ala-His-D-Phe-Arg-2-Nal-Ala-Cys)-NH2]	4560	8810	132	–	–	–	–	–
[dF]CH[d(Et)Tyr][hArg]W[βAla][dC]T-NH2 (disulfide 2-8 (inferred)) [D-Phe-c(Cys-His-D-(Et)Tyr-hArg-Trp-β-Ala-D-Cys)-Thr-NH2]	–	–	–	–	–	–	–	14.7
Ac-[Nle]D[dA]H[dF]R[Bal]K-NH2 (lactam 2-8; reading uncertain) [Ac-Nle-c(Asp-D-Ala-His-D-Phe-Arg-Bal-Lys)-NH2]	445	4300	4.12	–	–	–	–	50.6
B4	–	–	–	1.81	502	20.5	4.57	–

— patent US20170240595 (published 2017)
